# Data: publication PMC13544220, “Glycemic and bodyweight effects of GIPR coding variation reflect differences in surface expression and intrinsic functional impairment” (Science Advances, 2026)
# Assays:
# Format in all cases: cell-based, human
# [1] = tested on: wild-type and variant SNAP-GIPR; assay: Surface SNAP-GIPR expression (SNAP-tag labelling) in INS-1 cells; settings: Fig 4G; Mean
# Summary of the method: (§1)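 Read-out: whole-cell fluorescence of surface-only SNAP label (Alexa Fluor 647, 500 nM, 10 min, RT), wide-field 20X, several FOVs per well. Flat-field corrected, phase-contrast masked, nontransfected-well signal subtracted; normalized to experiment mean or wild-type.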
# [2] = tested on: wild-type and variant SNAP-GIPR; assay: Single-concentration GIP cAMP response by HTRF in AD293 cells; settings: Fig S3F, HTRF, mean;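 note: ratio to experiment-wide average response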
# Experimental: (§2) All variants were tested in parallel on each occasion to control for transfection efficiency differences between experiments.
# [3] = tested on: wild-type and variant SNAP-GIPR; assay: Single-concentration GIP cAMP response by HTRF in INS-1 cells; settings: Fig S3E, mean
# Experimental: as §2
# [4] = tested on: wild-type and variant SNAP-GIPR; assay: cADDis cAMP imaging in AD293 cells, ensemble, expression-matched and per decile; settings: Fig S3F, cADDis, mean;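 note: Ensemble cells as % of IBMX/FSK response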
# Summary of the method: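 Surface GIPR and cAMP are measured in individual AD293 cells coexpressing SNAP-tagged receptor and the green cADDis biosensor, imaged live at 37°C. Responses are reported ensemble, expression-matched against wild-type deciles with extremes trimmed, or within each variant's own surface deciles.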
# [5] = tested on: wild-type and variant SNAP-GIPR; assay: Constitutive and agonist-mediated internalization, reversible SNAP-tag labelling, INS-1 cells; parameters: key to Internalisation, GIP-only / Internalisation, Vehicle / Internalisation, +GIP: % internalization: residual fluorescence after Mesna vs pre-Mesna; settings: Mean; for +GIP internalisation (100 nM) / GIP-specific internalisation (100 nM) / Constitutive internalisation (100 nM): Fig 4G; for +GIP internalisation (100 nM) / GIP-specific internalisation (100 nM): GIP 100 nM; for Internalisation, +GIP / Internalisation, GIP-only / Internalisation, Vehicle: Fig S4C, INS-1
# Summary of the method: (§3)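 Percentage internalization calculated as specific SNAP fluorescence remaining after 10 min Mesna exposure, relative to pre-Mesna signal, imaged in TNE buffer (pH 8.6).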
# [6] = tested on: wild-type and variant SNAP-GIPR; assay: Surface SNAP-GIPR expression (SNAP-tag labelling) in AD293 cells; settings: for AD293 Surface: Fig S3E, mean; for Surface SNAP-GIPR expression: sheet Fig 1C;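 for all read-outs here: scaled to the experimental average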
# Summary of the method: as §1
# [7] = tested on: wild-type and variant SNAP-GIPR; assay: Constitutive and agonist-mediated internalization, reversible SNAP-tag labelling, AD293 cells; parameters: key to Internalisation, Vehicle / Internalisation, +GIP / Internalisation, GIP-only: % internalization: residual fluorescence after Mesna vs pre-Mesna; Surface expression: unit not given here; settings: Mean; for +GIP internalisation (100 nM) / GIP-specific internalisation (100 nM) / Constitutive internalisation (100 nM) / Surface expression: Fig 4E; for +GIP internalisation (100 nM) / GIP-specific internalisation (100 nM): GIP 100 nM; for Internalisation, +GIP / Internalisation, GIP-only / Internalisation, Vehicle: Fig S4C, AD293
# Summary of the method: as §3
# [8] = column repeated, paired with cAMP 100 nM
molecule,measurement,setting,value
"R217L (protein, UniProt P48546 22-466, looked up, variant R217L) Gastric inhibitory …: RAETGSKGQTAGELYQRWERYRRECQETLAAAEPPSGLACNGSFDMYVCWDYAAPNATARASCPWYLPWHHHVAAGFVLRQCGSDGQWGLWRDHTQCENPEKNEAFLDQRLILERLQVMYTVGYSLSLATLLLALLILSLFRRLHCTRNYIHINLFTSFMLRAAAILSRDRLLPRPGPYLGDQALALWNQALAACLTAQIVTQYCVGANYTWLLVEGVYLHSLLVLVGGSEEGHFRYYLLLGWGAPALFVIPWVIVRYLYENTQCWERNEVKAIWWIIRTPILMTILINFLIFIRILGILLSKLRTRQMRCRDYRLRLARSTLTLVPLLGVHEVVFAPVTEEQARGALRFAKLGFEIFLSSFQGFLVSVLYCFINKEVQSEIRRGWHHCRLRRSLGEEQRQLPERAFRALPSGSGPGEVPTSRGLSSGTLPGPGNEASRELESYC",Surface expression,[1],0.4654
same,AD293 100 pM HTRF,[2],0.09215
same,AD293 100 nM HTRF,[2],1.142
same,INS-1 cAMP (100 nM),[3],1.196
same,AD293 100 pM cADDis,[4],17.6282
same,AD293 100 nM cADDis,[4],34.7
same,+GIP internalisation (100 nM),[5],0.2239
same,GIP-specific internalisation (100 nM),[5],0.03772
same,Constitutive internalisation (100 nM),[5],0.1862
same,"Internalisation, +GIP",[5],51.715
same,"Internalisation, GIP-only",[5],8.862
same,"Internalisation, Vehicle",[5],42.8533
same,AD293 Surface,[6]; [8],0.4259
same,AD293 Surface,[6]; paired with cAMP 100 pM,0.4259
same,Surface SNAP-GIPR expression,[6]; replicate 1,0.4201
same,Surface SNAP-GIPR expression,[6]; replicate 2,0.7236
same,Surface SNAP-GIPR expression,[6]; replicate 3,0.824
same,Surface SNAP-GIPR expression,[6]; replicate 4,0.3234
same,Surface SNAP-GIPR expression,[6]; replicate 5,0.3781
same,Surface SNAP-GIPR expression,[6]; replicate 6,0.5304
same,Surface SNAP-GIPR expression,[6]; replicate 7,0.6162
same,Surface SNAP-GIPR expression,[6]; replicate 8,0.6634
same,Surface SNAP-GIPR expression,[6]; replicate 9,0.3807
same,Surface SNAP-GIPR expression,[6]; replicate 10,0.4129
same,Surface SNAP-GIPR expression,[6]; replicate 11,0.358
same,Surface SNAP-GIPR expression,[6]; replicate 12,0.3678
same,Surface SNAP-GIPR expression,[6]; replicate 13,0.04028
same,Surface SNAP-GIPR expression,[6]; replicate 14,0.3517
same,Surface SNAP-GIPR expression,[6]; replicate 15,0.3652
same,Surface SNAP-GIPR expression,[6]; replicate 16,0.3999
same,Surface SNAP-GIPR expression,[6]; replicate 17,0.3288
same,Surface SNAP-GIPR expression,[6]; replicate 18,0.3912
same,Surface SNAP-GIPR expression,[6]; replicate 19,0.3034
same,Surface SNAP-GIPR expression,[6]; replicate 20,0.3764
same,Surface SNAP-GIPR expression,[6]; replicate 21,0.4615
same,Surface SNAP-GIPR expression,[6]; replicate 22,0.364
same,Surface SNAP-GIPR expression,[6]; replicate 23,0.3963
same,Surface SNAP-GIPR expression,[6]; replicate 24,0.3543
same,Surface SNAP-GIPR expression,[6]; replicate 25,0.4738
same,Surface SNAP-GIPR expression,[6]; replicate 26,0.4835
same,Surface SNAP-GIPR expression,[6]; replicate 27,0.4338
same,Surface SNAP-GIPR expression,[6]; replicate 28,0.5117
same,Surface SNAP-GIPR expression,[6]; replicate 29,0.4222
same,Surface SNAP-GIPR expression,[6]; replicate 30,0.4733
same,Surface SNAP-GIPR expression,[6]; replicate 31,0.4841
same,Surface SNAP-GIPR expression,[6]; replicate 32,0.4011
same,Surface SNAP-GIPR expression,[6]; replicate 33,0.4465
same,Surface SNAP-GIPR expression,[6]; replicate 34,0.4033
same,Surface SNAP-GIPR expression,[6]; replicate 35,0.2194
same,Surface SNAP-GIPR expression,[6]; replicate 36,0.2502
same,Surface SNAP-GIPR expression,[6]; replicate 37,0.3794
same,Surface SNAP-GIPR expression,[6]; replicate 38,0.4678
same,Surface SNAP-GIPR expression,[6]; replicate 39,0.4904
same,Surface SNAP-GIPR expression,[6]; replicate 40,0.4789
same,Surface SNAP-GIPR expression,[6]; replicate 41,0.5101
same,+GIP internalisation (100 nM),[7],0.224
same,GIP-specific internalisation (100 nM),[7],0.04046
same,Constitutive internalisation (100 nM),[7],0.1836
same,Surface expression,[7],0.4265
same,"Internalisation, +GIP",[7],55.082
same,"Internalisation, GIP-only",[7],10.4684
same,"Internalisation, Vehicle",[7],44.6136
"L262H (protein, UniProt P48546 22-466, looked up, variant L262H) Gastric inhibitory …: RAETGSKGQTAGELYQRWERYRRECQETLAAAEPPSGLACNGSFDMYVCWDYAAPNATARASCPWYLPWHHHVAAGFVLRQCGSDGQWGLWRDHTQCENPEKNEAFLDQRLILERLQVMYTVGYSLSLATLLLALLILSLFRRLHCTRNYIHINLFTSFMLRAAAILSRDRLLPRPGPYLGDQALALWNQALAACRTAQIVTQYCVGANYTWLLVEGVYLHSLLVLVGGSEEGHFRYYLLHGWGAPALFVIPWVIVRYLYENTQCWERNEVKAIWWIIRTPILMTILINFLIFIRILGILLSKLRTRQMRCRDYRLRLARSTLTLVPLLGVHEVVFAPVTEEQARGALRFAKLGFEIFLSSFQGFLVSVLYCFINKEVQSEIRRGWHHCRLRRSLGEEQRQLPERAFRALPSGSGPGEVPTSRGLSSGTLPGPGNEASRELESYC",Surface expression,[1],0.4629
same,AD293 100 pM HTRF,[2],0.1729
same,AD293 100 nM HTRF,[2],1.14
same,INS-1 cAMP (100 nM),[3],0.9739
same,AD293 100 pM cADDis,[4],18.6863
same,AD293 100 nM cADDis,[4],34.26
same,+GIP internalisation (100 nM),[5],0.2099
same,GIP-specific internalisation (100 nM),[5],0.0574
same,Constitutive internalisation (100 nM),[5],0.1525
same,"Internalisation, +GIP",[5],50.32
same,"Internalisation, GIP-only",[5],13.8767
same,"Internalisation, Vehicle",[5],36.4433
same,AD293 Surface,[6]; [8],0.4082
same,AD293 Surface,[6]; paired with cAMP 100 pM,0.4082
same,Surface SNAP-GIPR expression,[6]; replicate 1,0.05586
same,Surface SNAP-GIPR expression,[6]; replicate 2,0.3975
same,Surface SNAP-GIPR expression,[6]; replicate 3,0.3851
same,Surface SNAP-GIPR expression,[6]; replicate 4,0.346
same,Surface SNAP-GIPR expression,[6]; replicate 5,0.2997
same,Surface SNAP-GIPR expression,[6]; replicate 6,0.4709
same,Surface SNAP-GIPR expression,[6]; replicate 7,0.6801
same,Surface SNAP-GIPR expression,[6]; replicate 8,0.6962
same,Surface SNAP-GIPR expression,[6]; replicate 9,0.3552
same,Surface SNAP-GIPR expression,[6]; replicate 10,0.4769
same,Surface SNAP-GIPR expression,[6]; replicate 11,0.4805
same,Surface SNAP-GIPR expression,[6]; replicate 12,0.4059
same,Surface SNAP-GIPR expression,[6]; replicate 13,0.3345
same,Surface SNAP-GIPR expression,[6]; replicate 14,0.4406
same,Surface SNAP-GIPR expression,[6]; replicate 15,0.3425
same,Surface SNAP-GIPR expression,[6]; replicate 16,0.4438
same,Surface SNAP-GIPR expression,[6]; replicate 17,0.4347
same,Surface SNAP-GIPR expression,[6]; replicate 18,0.4011
same,Surface SNAP-GIPR expression,[6]; replicate 19,0.3575
same,Surface SNAP-GIPR expression,[6]; replicate 20,0.2679
same,Surface SNAP-GIPR expression,[6]; replicate 21,0.3532
same,Surface SNAP-GIPR expression,[6]; replicate 22,0.4093
same,Surface SNAP-GIPR expression,[6]; replicate 23,0.4836
same,Surface SNAP-GIPR expression,[6]; replicate 24,0.3698
same,Surface SNAP-GIPR expression,[6]; replicate 25,0.4044
same,Surface SNAP-GIPR expression,[6]; replicate 26,0.4747
same,Surface SNAP-GIPR expression,[6]; replicate 27,0.4781
same,Surface SNAP-GIPR expression,[6]; replicate 28,0.4405
same,Surface SNAP-GIPR expression,[6]; replicate 29,0.3368
same,Surface SNAP-GIPR expression,[6]; replicate 30,0.4516
same,Surface SNAP-GIPR expression,[6]; replicate 31,0.3843
same,Surface SNAP-GIPR expression,[6]; replicate 32,0.4196
same,Surface SNAP-GIPR expression,[6]; replicate 33,0.4081
same,Surface SNAP-GIPR expression,[6]; replicate 34,0.4658
same,Surface SNAP-GIPR expression,[6]; replicate 35,0.5726
same,Surface SNAP-GIPR expression,[6]; replicate 36,0.3172
same,Surface SNAP-GIPR expression,[6]; replicate 37,0.2985
same,Surface SNAP-GIPR expression,[6]; replicate 38,0.4456
same,Surface SNAP-GIPR expression,[6]; replicate 39,0.3825
same,Surface SNAP-GIPR expression,[6]; replicate 40,0.3992
same,Surface SNAP-GIPR expression,[6]; replicate 41,0.3665
same,+GIP internalisation (100 nM),[7],0.2171
same,GIP-specific internalisation (100 nM),[7],0.04083
same,Constitutive internalisation (100 nM),[7],0.1763
same,Surface expression,[7],0.3728
same,"Internalisation, +GIP",[7],58.197
same,"Internalisation, GIP-only",[7],10.9885
same,"Internalisation, Vehicle",[7],47.2085
